Data published in patent EP4635976A1 (Medigene Immunotherapies GmbH, dated 2025).

Assays:
Test in all cases: cell-based or functional assay
[1] = biological target: mismatched peptide #62 …
[2] = biological target: mismatched peptide #15 …
[3] = biological target: mismatched peptide #265 …
[4] = biological target: mismatched peptide #257 …
[5] = biological target: mismatched peptide #228 …
[6] = biological target: mismatched peptide #323 …
[7] = biological target: mismatched peptide #247 …
[8] = biological target: mismatched peptide #239 …
[9] = biological target: mismatched peptide #243 …
[10] = biological target: mismatched peptide #79 …
[11] = biological target: mismatched peptide #45 …
[12] = biological target: mismatched peptide #314 …
[13] = biological target: mismatched peptide #244 …
[14] = biological target: mismatched peptide #240 …
[15] = biological target: mismatched peptide #31 …
[16] = biological target: mismatched peptide #9 …
[17] = biological target: mismatched peptide #41 …
[18] = biological target: mismatched peptide #160 …
[19] = biological target: mismatched peptide #76 …
[20] = biological target: mismatched peptide #221 …
[21] = biological target: mismatched peptide #116 …
[22] = biological target: mismatched peptide #324 …
[23] = biological target: mismatched peptide #24 …
[24] = biological target: mismatched peptide #246 …
[25] = biological target: mismatched peptide #236 …
[26] = biological target: mismatched peptide #7 …
[27] = biological target: mismatched peptide #8 …
[28] = biological target: mismatched peptide #13 …
[29] = biological target: mismatched peptide #278 …

B1: NY-ESO specific TCR (T11.8-10-17), wild type (TCR)
TCR alpha: QKEVEQNSGPLSVPEGAIASLNCTYSDRGSQSFFWYRQYSGKSPELIMFIYSNGDKEDGRFTAQLNKASQYVSLLIRDSQPSDSATYLCAADDKIIFGKGTRLHILPNIQNPDPAVYQLRDSKSSDKSVCLFTDFDSQTNVSQSKDSDVYITDKTVLDMRSMDFKSNSAVAWSNKSDFACANAFNNSIIPEDTFFPSSDVPCDVKLVEKSFETDTNLNFQNLSVIGFRILLLKVAGFNLLMTLRLWSS
TCR beta: DAGVIQSPRHEVTEMGQEVTLRCKPISGHDYLFWYRQTMMRGLELLIYFNNNVPIDDSGMPEDRFSAKMPNASFSTLKIQPSEPRDSAVYFCASSRGGSGYTFGSGTRLTVVEDLNKVFPPEVAVFEPSKAEIAHTQKATLVCLATGFFPDHVELSWWVNGKEVHSGVSTDPQPLKEQPALNDSRYCLSSRLRVSATFWQNPRNHFRCQVQFYGLSENDEWTQDRAKPVTQIVSAEAWGRADCGITSASYHQGVLSATILYEILLGKATLYAVLVSALVLMAMVKRKDF
IFN-γ release (IFNg-ELISA), donor MIT038 [1]: 819 pg/mL | IFN-γ release (IFNg-ELISA), donor MIT 045 [1]: 88.3 pg/mL | IFN-γ release (IFNg-ELISA), donor MIT038 [2]: 282 pg/mL | IFN-γ release (IFNg-ELISA), donor MIT 045 [2]: 47.1 pg/mL | IFN-γ release (IFNg-ELISA), donor MIT038 [3]: 366 pg/mL | IFN-γ release (IFNg-ELISA), donor MIT 045 [3]: 43.2 pg/mL | IFN-γ release (IFNg-ELISA), donor MIT038 [4]: 383 pg/mL | IFN-γ release (IFNg-ELISA), donor MIT 045 [4]: 57.9 pg/mL | IFN-γ release (IFNg-ELISA), donor MIT038 [5]: 234 pg/mL | IFN-γ release (IFNg-ELISA), donor MIT 045 [5]: 35.4 pg/mL | IFN-γ release (IFNg-ELISA), donor MIT038 [6]: 3700 pg/mL | IFN-γ release (IFNg-ELISA), donor MIT 045 [6]: 658 pg/mL | IFN-γ release (IFNg-ELISA), donor MIT038 [7]: 681 pg/mL | IFN-γ release (IFNg-ELISA), donor MIT 045 [7]: 80.5 pg/mL | IFN-γ release (IFNg-ELISA), donor MIT038 [8]: 229 pg/mL | IFN-γ release (IFNg-ELISA), donor MIT 045 [8]: 32.1 pg/mL | IFN-γ release (IFNg-ELISA), donor MIT038 [9]: 380 pg/mL | IFN-γ release (IFNg-ELISA), donor MIT 045 [9]: 47.2 pg/mL | IFN-γ release (IFNg-ELISA), donor MIT038 [10]: 292 pg/mL | IFN-γ release (IFNg-ELISA), donor MIT 045 [10]: 40.3 pg/mL | IFN-γ release (IFNg-ELISA), donor MIT038 [11]: 1500 pg/mL | IFN-γ release (IFNg-ELISA), donor MIT 045 [11]: 177 pg/mL | IFN-γ release (IFNg-ELISA), donor MIT 045 [12]: 26.7 pg/mL | IFN-γ release (IFNg-ELISA), donor MIT038 [13]: 441 pg/mL | IFN-γ release (IFNg-ELISA), donor MIT 045 [13]: 45.4 pg/mL | IFN-γ release (IFNg-ELISA), donor MIT038 [14]: 237 pg/mL | IFN-γ release (IFNg-ELISA), donor MIT 045 [14]: 23.4 pg/mL | IFN-γ release (IFNg-ELISA), donor MIT038 [15]: 2130 pg/mL | IFN-γ release (IFNg-ELISA), donor MIT 045 [15]: 887 pg/mL | IFN-γ release (IFNg-ELISA), donor MIT 045 [16]: 26.5 pg/mL | IFN-γ release (IFNg-ELISA), donor MIT038 [17]: 298 pg/mL | IFN-γ release (IFNg-ELISA), donor MIT 045 [17]: 55.6 pg/mL | IFN-γ release (IFNg-ELISA), donor MIT038 [18]: 3620 pg/mL | IFN-γ release (IFNg-ELISA), donor MIT 045 [18]: 1290 pg/mL | IFN-γ release (IFNg-ELISA), donor MIT038 [19]: 769 pg/mL | IFN-γ release (IFNg-ELISA), donor MIT 045 [19]: 150 pg/mL | IFN-γ release (IFNg-ELISA), donor MIT038 [20]: 789 pg/mL | IFN-γ release (IFNg-ELISA), donor MIT 045 [20]: 101 pg/mL | IFN-γ release (IFNg-ELISA), donor MIT 045 [21]: 32.4 pg/mL | IFN-γ release (IFNg-ELISA), donor MIT038 [22]: 432 pg/mL | IFN-γ release (IFNg-ELISA), donor MIT 045 [23]: 24.3 pg/mL | IFN-γ release (IFNg-ELISA), donor MIT038 [24]: 321 pg/mL | IFN-γ release (IFNg-ELISA), donor MIT 045 [24]: 40.9 pg/mL | IFN-γ release (IFNg-ELISA), donor MIT038 [25]: 256 pg/mL | IFN-γ release (IFNg-ELISA), donor MIT 045 [25]: 32.3 pg/mL | IFN-γ release (IFNg-ELISA), donor MIT 045 [26]: 24 pg/mL | IFN-γ release (IFNg-ELISA), donor MIT 045 [27]: 24.7 pg/mL | IFN-γ release (IFNg-ELISA), donor MIT 045 [28]: 20.8 pg/mL | IFN-γ release (IFNg-ELISA), donor MIT038 [29]: 464 pg/mL | IFN-γ release (IFNg-ELISA), donor MIT 045 [29]: 50.8 pg/mL
